Where a chain is given by its changes, count along the chain named. Several values for one entry are separate records, joined by “and”; a condition that tells them apart may be missing. Equal values may be shown once.
T1: CD24 (cell surface) (human)
T1 chain: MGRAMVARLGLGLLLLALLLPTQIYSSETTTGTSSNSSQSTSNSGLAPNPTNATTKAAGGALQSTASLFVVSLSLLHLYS

B1: huG14-137 (antibody, V domains shown)
VH: EVQLVESGGGLVKPGGSLRLSCAASGLTFSNYWGNWVRQAPGKGLEWVALIRLYSDNYAIHYAESVKGRFTISRDDSKSTVYLQMNSLKTEDTAVYYCTTGTDNWGQGTTVTVSS
VL: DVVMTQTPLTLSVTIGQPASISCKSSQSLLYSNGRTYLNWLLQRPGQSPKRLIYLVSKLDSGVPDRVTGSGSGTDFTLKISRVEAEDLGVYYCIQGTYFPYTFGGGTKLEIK
B2: huG14-1 (antibody, V domains shown)
VH: B1 VH with G34M, N104Y
VL: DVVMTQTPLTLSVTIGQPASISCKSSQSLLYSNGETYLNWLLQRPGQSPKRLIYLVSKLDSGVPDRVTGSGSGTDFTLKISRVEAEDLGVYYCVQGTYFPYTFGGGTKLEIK
B3: huG14-118 (antibody, V domains shown)
VH: B1 VH with G34M, N104Y
VL: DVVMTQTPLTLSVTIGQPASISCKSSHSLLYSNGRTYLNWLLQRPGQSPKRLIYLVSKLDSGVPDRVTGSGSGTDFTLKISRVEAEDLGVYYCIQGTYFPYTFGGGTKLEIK
B4: huG14-123 (antibody, V domains shown)
VH: B1 VH with N104Y
VL: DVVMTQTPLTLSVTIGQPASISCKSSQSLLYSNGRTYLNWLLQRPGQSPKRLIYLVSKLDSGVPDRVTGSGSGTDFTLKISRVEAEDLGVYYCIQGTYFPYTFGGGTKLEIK
B5: huG14-126 (antibody, V domains shown)
VH: B1 VH with G34M
VL: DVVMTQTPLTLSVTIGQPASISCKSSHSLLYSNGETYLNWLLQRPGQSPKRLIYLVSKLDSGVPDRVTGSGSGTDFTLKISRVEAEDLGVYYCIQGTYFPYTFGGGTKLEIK
B6: huG14-129 (antibody, V domains shown)
VH: B1 VH with G34M
VL: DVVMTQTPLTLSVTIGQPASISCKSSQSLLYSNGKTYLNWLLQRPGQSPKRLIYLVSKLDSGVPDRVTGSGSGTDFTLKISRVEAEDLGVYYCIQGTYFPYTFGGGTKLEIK
B7: huG14-119 (antibody, V domains shown)
VH: B1 VH with N104Y
VL: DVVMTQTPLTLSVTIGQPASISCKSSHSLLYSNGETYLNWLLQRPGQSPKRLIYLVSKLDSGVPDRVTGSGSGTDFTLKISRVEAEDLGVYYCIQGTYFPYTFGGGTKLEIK
B8: huG14-122 (antibody, V domains shown)
VH: B1 VH with N104Y
VL: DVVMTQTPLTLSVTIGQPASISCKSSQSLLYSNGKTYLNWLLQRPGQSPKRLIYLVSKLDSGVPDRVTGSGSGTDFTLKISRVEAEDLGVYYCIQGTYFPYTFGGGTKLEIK
B9: huG14-132 (antibody, V domains shown)
VH: B1 VH with G34M
VL: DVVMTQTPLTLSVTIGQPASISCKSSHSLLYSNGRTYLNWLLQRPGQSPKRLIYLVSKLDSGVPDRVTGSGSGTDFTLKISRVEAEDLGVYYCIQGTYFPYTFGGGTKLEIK
B10: huG14-139 (antibody, V domains shown)
VH: B1 VH
VL: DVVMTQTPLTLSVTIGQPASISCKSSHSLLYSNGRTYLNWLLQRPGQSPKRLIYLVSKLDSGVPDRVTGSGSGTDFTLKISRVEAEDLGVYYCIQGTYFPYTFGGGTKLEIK
B11: huG14-121 (antibody, V domains shown)
VH: B1 VH with N104Y
VL: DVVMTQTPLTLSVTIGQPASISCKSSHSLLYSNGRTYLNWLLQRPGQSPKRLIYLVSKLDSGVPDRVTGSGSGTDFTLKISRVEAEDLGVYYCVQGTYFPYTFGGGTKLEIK
B12: huG14-127 (antibody, V domains shown)
VH: B1 VH with G34M
VL: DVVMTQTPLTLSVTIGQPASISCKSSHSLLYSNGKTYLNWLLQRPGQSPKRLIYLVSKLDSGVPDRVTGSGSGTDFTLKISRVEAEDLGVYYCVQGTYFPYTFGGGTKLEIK
B13: huG14-113 (antibody, V domains shown)
VH: B1 VH with G34M, N104Y
VL: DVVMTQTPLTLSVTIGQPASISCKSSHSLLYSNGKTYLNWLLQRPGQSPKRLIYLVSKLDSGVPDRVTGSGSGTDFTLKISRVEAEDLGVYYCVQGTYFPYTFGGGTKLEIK
B14: huG14-136 (antibody, V domains shown)
VH: B1 VH
VL: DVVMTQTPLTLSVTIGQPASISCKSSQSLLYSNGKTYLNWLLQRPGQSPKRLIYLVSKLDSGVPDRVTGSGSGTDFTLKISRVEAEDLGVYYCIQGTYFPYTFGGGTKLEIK
B15: huG14-120 (antibody, V domains shown)
VH: B1 VH with N104Y
VL: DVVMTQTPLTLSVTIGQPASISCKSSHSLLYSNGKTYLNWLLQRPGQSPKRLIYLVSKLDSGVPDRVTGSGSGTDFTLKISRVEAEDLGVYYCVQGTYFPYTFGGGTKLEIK
B16: huG14-114 (antibody, V domains shown)
VH: B1 VH with G34M, N104Y
VL: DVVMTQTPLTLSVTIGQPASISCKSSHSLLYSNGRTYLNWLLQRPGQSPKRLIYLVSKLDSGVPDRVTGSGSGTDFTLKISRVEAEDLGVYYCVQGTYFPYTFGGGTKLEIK
B17: huG14-117 (antibody, V domains shown)
VH: B1 VH with G34M, N104Y
VL: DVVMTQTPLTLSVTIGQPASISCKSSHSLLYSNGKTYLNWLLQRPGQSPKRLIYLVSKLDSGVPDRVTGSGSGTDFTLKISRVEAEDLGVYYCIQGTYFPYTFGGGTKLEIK
B18: huG14-138 (antibody, V domains shown)
VH: B1 VH
VL: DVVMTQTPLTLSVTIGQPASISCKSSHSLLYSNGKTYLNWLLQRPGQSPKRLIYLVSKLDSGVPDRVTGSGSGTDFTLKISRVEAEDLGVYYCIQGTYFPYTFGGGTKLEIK
B19: huG14-116 (antibody, V domains shown)
VH: B1 VH with G34M, N104Y
VL: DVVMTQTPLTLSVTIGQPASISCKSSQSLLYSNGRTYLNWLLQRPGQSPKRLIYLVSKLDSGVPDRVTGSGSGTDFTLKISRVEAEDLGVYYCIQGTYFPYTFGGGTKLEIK
B20: huG14-128 (antibody, V domains shown)
VH: B1 VH with G34M
VL: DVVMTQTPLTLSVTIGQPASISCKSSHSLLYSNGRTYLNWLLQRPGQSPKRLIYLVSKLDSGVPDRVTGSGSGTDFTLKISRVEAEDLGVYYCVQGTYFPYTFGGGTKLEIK
B21: huG14-112 (antibody, V domains shown)
VH: B1 VH with G34M, N104Y
VL: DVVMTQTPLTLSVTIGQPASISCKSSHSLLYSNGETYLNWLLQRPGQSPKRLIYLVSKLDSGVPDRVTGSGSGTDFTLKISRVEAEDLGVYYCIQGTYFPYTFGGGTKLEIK
B22: huG14-115 (antibody, V domains shown)
VH: B1 VH with G34M, N104Y
VL: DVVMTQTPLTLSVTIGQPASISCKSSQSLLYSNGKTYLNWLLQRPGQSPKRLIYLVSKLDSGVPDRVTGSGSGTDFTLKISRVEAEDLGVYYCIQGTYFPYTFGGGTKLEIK
B23: huG14-133 (antibody, V domains shown)
VH: B1 VH
VL: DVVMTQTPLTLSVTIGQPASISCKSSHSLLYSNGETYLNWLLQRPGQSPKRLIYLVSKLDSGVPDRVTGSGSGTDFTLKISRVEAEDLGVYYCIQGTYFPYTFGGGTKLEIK
B24: huG14-134 (antibody, V domains shown)
VH: B1 VH
VL: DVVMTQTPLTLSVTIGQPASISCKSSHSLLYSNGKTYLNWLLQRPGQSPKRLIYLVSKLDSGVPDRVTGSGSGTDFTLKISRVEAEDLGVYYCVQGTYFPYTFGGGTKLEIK
B25: huG14-135 (antibody, V domains shown)
VH: B1 VH
VL: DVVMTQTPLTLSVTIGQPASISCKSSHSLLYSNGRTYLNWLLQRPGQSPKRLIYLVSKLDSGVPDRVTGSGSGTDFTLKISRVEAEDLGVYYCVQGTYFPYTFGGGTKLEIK
B26: huG14-130 (antibody, V domains shown)
VH: B1 VH with G34M
VL: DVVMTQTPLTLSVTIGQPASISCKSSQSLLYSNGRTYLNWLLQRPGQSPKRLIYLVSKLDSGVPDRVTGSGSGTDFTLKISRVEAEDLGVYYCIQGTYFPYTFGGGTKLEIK
B27: huG14-217 (antibody, V domains shown)
VH: B1 VH with N104Y
VL: DVVMTQSPLSLPVTPGRPASISCKSSHSLLYSNGRTYLNWLLQKPGQSPQRLIYLVSKLDSGVPDRFSGSGSGTDFTLKISRVEAEDLGVYYCIQGTYFPYTFGQGTKLEIK
B28: huG14-232 (antibody, V domains shown)
VH: B1 VH
VL: B27 VL with P12Y
B29: huG14-131 (antibody, V domains shown)
VH: B1 VH with G34M
VL: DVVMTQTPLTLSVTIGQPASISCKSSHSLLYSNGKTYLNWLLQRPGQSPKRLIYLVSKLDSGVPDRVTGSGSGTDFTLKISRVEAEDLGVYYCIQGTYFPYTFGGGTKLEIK
B30: huG14-105 (antibody, V domains shown)
VH: B1 VH with G34M, N104Y
VL: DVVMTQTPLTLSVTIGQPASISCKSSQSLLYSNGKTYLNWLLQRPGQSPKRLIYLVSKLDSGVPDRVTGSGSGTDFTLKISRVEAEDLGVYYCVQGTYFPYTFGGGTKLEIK
B31: huG14-109 (antibody, V domains shown)
VH: B1 VH with N104Y
VL: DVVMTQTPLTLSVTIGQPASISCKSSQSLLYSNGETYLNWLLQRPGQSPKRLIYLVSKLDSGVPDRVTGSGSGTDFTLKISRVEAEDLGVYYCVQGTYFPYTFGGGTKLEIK
B32: huG14-101 (antibody, V domains shown)
VH: B1 VH with G34M, N104Y
VL: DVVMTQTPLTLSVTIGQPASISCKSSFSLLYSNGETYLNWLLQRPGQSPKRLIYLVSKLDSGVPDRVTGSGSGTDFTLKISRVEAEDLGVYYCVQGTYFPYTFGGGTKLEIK
B33: huG14-110 (antibody, V domains shown)
VH: B1 VH with G34M
VL: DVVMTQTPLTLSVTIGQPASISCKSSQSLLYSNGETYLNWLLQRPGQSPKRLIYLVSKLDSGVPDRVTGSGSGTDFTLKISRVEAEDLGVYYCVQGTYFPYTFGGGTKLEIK
B34: huG14-111 (antibody, V domains shown)
VH: B1 VH with G34M, N104F
VL: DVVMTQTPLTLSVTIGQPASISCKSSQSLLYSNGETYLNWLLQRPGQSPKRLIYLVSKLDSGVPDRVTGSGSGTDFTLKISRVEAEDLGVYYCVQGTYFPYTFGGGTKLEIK
B35: huG14-104 (antibody, V domains shown)
VH: B1 VH with G34M, N104Y
VL: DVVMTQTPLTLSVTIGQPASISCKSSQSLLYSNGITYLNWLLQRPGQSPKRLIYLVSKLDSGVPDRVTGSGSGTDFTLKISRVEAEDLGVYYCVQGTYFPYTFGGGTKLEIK
B36: huG14-103 (antibody, V domains shown)
VH: B1 VH with G34M, N104Y
VL: not shown
B37: huG14-106 (antibody, V domains shown)
VH: B1 VH with G34M, N104Y
VL: not shown
B38: huG14-102 (antibody, V domains shown)
VH: B1 VH with G34M, N104Y
VL: not shown
B39: huG14-107 (antibody, V domains shown)
VH: B1 VH with G34M, N104Y
VL: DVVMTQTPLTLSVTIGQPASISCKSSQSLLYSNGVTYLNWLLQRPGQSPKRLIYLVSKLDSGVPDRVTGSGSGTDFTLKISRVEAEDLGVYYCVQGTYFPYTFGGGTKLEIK
B40: huG14-108 (antibody, V domains shown)
VH: B1 VH with G34M, N104Y
VL: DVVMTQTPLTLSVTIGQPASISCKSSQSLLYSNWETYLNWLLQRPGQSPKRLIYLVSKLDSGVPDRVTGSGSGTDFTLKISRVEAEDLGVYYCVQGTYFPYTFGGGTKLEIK
B41: P6373 (antibody, V domains shown)
VH: EVKFEESGGGLVQPGGSIKLSCAASGVTFSEAWMDWVRQSPEKGLEWVAEIRDKPNSYVTYYAESVKGRFTISRDDSKSRVYLQMNNLRTEDTGIYYCTGAMDYWGQGTSVTVSS
VL: DIVMTQTPLSLSVTIGQPASISCKSSQSLLYSNGKTYLNWLQQRPGQSPKRLIYQVSKLDPGIPDRFSGSGSETDFTLKISRVEAEDLGIYYCMQGSSLPWTFGGGTKLEIKR
B42: huG14-204 (antibody, V domains shown)
VH: B1 VH with G34M, N104Y
VL: B27 VL with R35E
B43: huG14-210 (antibody, V domains shown)
VH: B1 VH with G34M, N104Y
VL: B27 VL
B44: huG14-219 (antibody, V domains shown)
VH: B1 VH with G34M
VL: B27 VL with R35K, I94V
B45: huG14-225 (antibody, V domains shown)
VH: B1 VH
VL: B27 VL with R35E
B46: huG14-228 (antibody, V domains shown)
VH: B1 VH
VL: B27 VL with H27Q, R35K
B47: huG14-208 (antibody, V domains shown)
VH: B1 VH with G34M, N104Y
VL: B27 VL with H27Q
B48: huG14-209 (antibody, V domains shown)
VH: B1 VH with G34M, N104Y
VL: B27 VL with R35K
B49: huG14-205 (antibody, V domains shown)
VH: B1 VH with G34M, N104Y
VL: B27 VL with R35K, I94V
B50: huG14-229 (antibody, V domains shown)
VH: B1 VH
VL: B27 VL with H27Q
B51: huG14-213 (antibody, V domains shown)
VH: B1 VH with N104Y
VL: B27 VL with I94V

These binders were tested against CD24(27-56aa)-GST NEOX-4 (human) (assay: ELISA).
Chain of CD24(27-56aa)-GST NEOX-4 (human) (chain, as listed by the source): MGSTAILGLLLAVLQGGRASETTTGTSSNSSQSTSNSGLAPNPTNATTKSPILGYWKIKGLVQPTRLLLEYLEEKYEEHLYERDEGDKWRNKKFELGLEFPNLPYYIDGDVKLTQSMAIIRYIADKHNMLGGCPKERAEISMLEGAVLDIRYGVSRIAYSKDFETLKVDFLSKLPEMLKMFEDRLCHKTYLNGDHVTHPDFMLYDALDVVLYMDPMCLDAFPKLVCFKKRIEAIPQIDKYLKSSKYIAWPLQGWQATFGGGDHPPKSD

**Q.** How did the EC50 turn out when B1 was run?
**A.** The EC50 was 3.87 ng/mL.

**Q.** How did the EC50 turn out when B2 was run?
**A.** Its EC50 is 154 ng/mL.

**Q.** With B3 as the binder, how does the EC50 read?
**A.** Its EC50 is 4.83 ng/mL.

**Q.** B4 was tested. Which EC50 did it give?
**A.** Its EC50 is 3.86 ng/mL.

**Q.** For B5, which EC50 is on record?
**A.** Its EC50 is 3.93 ng/mL.

**Q.** With B6 as the binder, how does the EC50 read?
**A.** The EC50 was 4.09 ng/mL.

**Q.** How did the EC50 turn out when B7 was run?
**A.** Its EC50 is 8.93 ng/mL.

**Q.** B8 was tested. Which EC50 did it give?
**A.** The EC50 was 7.12 ng/mL.

**Q.** B9 was tested. Which EC50 did it give?
**A.** Its EC50 is 4.72 ng/mL.

**Q.** How did the EC50 turn out when B10 was run?
**A.** Its EC50 is 3.17 ng/mL.

**Q.** How did the EC50 turn out when B11 was run?
**A.** Its EC50 is 7.37 ng/mL and 7.04 ng/mL.

**Q.** Which EC50 does the source give for B12 here?
**A.** The EC50 was 2.97 ng/mL.

**Q.** B13 was tested. Which EC50 did it give?
**A.** Its EC50 is 11.9 ng/mL.

**Q.** For B14, which EC50 is on record?
**A.** Its EC50 is 4.05 ng/mL.

**Q.** For B15, which EC50 is on record?
**A.** The EC50 was 6.23 ng/mL.

**Q.** Which EC50 does the source give for B16 here?
**A.** Its EC50 is 10.4 ng/mL.

**Q.** For B17, which EC50 is on record?
**A.** Its EC50 is 7.27 ng/mL.

**Q.** For B18, which EC50 is on record?
**A.** Its EC50 is 3.28 ng/mL.

**Q.** For B19, which EC50 is on record?
**A.** Its EC50 is 11.2 ng/mL.

**Q.** B20 was tested. Which EC50 did it give?
**A.** Its EC50 is 4.12 ng/mL.

**Q.** Which EC50 does the source give for B21 here?
**A.** Its EC50 is 12.1 ng/mL.

**Q.** How did the EC50 turn out when B22 was run?
**A.** Its EC50 is 12.9 ng/mL.

**Q.** Which EC50 does the source give for B23 here?
**A.** The EC50 was 5.66 ng/mL.

**Q.** Which EC50 does the source give for B24 here?
**A.** Its EC50 is 3.83 ng/mL.

**Q.** With B25 as the binder, how does the EC50 read?
**A.** Its EC50 is 3.87 ng/mL.

**Q.** Which EC50 does the source give for B26 here?
**A.** Its EC50 is 3.89 ng/mL.

Target: T1, CD24 (cell surface)
Assay: FACS, MDA-MB-468

**Q.** For B27, which EC50 is on record?
**A.** Its EC50 is 1210 ng/mL.

**Q.** B28 was tested. Which EC50 did it give?
**A.** Its EC50 is 484 ng/mL.

**Q.** With B29 as the binder, how does the EC50 read?
**A.** The EC50 was 570 ng/mL.

Target: CD24(27-56aa)-GST NEOX-4 (human)
Assay: ELISA
Remark: another data set of the same source

**Q.** How did the EC50 turn out when B2 was run?
**A.** The EC50 was 136 ng/mL and 128 ng/mL.

**Q.** How did the EC50 turn out when B30 was run?
**A.** The EC50 was 20.6 ng/mL.

**Q.** Which EC50 does the source give for B31 here?
**A.** The EC50 was 10.9 ng/mL.

**Q.** How did the EC50 turn out when B32 was run?
**A.** Its EC50 is 32.5 ng/mL.

**Q.** B33 was tested. Which EC50 did it give?
**A.** Its EC50 is 15.3 ng/mL.

**Q.** Which EC50 does the source give for B34 here?
**A.** The EC50 was 29.3 ng/mL.

**Q.** Which EC50 does the source give for B35 here?
**A.** The EC50 was 18.3 ng/mL.

**Q.** B36 was tested. Which EC50 did it give?
**A.** Its EC50 is 8.13 ng/mL.

**Q.** How did the EC50 turn out when B37 was run?
**A.** Its EC50 is 15.7 ng/mL.

**Q.** B38 was tested. Which EC50 did it give?
**A.** Its EC50 is 9.61 ng/mL.

**Q.** B39 was tested. Which EC50 did it give?
**A.** Its EC50 is 49.4 ng/mL.

**Q.** Which EC50 does the source give for B40 here?
**A.** Its EC50 is 78.4 ng/mL.

Target: T1, CD24 (cell surface)
Assay: FACS, NALM6

**Q.** With B27 as the binder, how does the EC50 read?
**A.** The EC50 was 348 ng/mL.

**Q.** With B28 as the binder, how does the EC50 read?
**A.** The EC50 was 236 ng/mL.

**Q.** B41 was tested. Which EC50 did it give?
**A.** The EC50 was 469 ng/mL and 218 ng/mL.

**Q.** Which EC50 does the source give for B29 here?
**A.** Its EC50 is 391 ng/mL.

Target: CD24(27-56aa)-GST NEOX-4 (human)
Assay: ELISA
Remark: another data set of the same source

**Q.** B27 was tested. Which EC50 did it give?
**A.** Its EC50 is 4.43 ng/mL.

**Q.** Which EC50 does the source give for B2 here?
**A.** Its EC50 is 177 ng/mL.

**Q.** Which EC50 does the source give for B28 here?
**A.** Its EC50 is 6.21 ng/mL.

**Q.** For B42, which EC50 is on record?
**A.** The EC50 was 6.67 ng/mL.

**Q.** Which EC50 does the source give for B43 here?
**A.** The EC50 was 4.26 ng/mL.

**Q.** Which EC50 does the source give for B44 here?
**A.** The EC50 was 5.69 ng/mL.

**Q.** Which EC50 does the source give for B45 here?
**A.** Its EC50 is 6.28 ng/mL.

**Q.** B46 was tested. Which EC50 did it give?
**A.** Its EC50 is 9.88 ng/mL.

**Q.** For B47, which EC50 is on record?
**A.** Its EC50 is 4.02 ng/mL.

**Q.** How did the EC50 turn out when B48 was run?
**A.** The EC50 was 4.13 ng/mL.

**Q.** With B49 as the binder, how does the EC50 read?
**A.** The EC50 was 6.28 ng/mL.

**Q.** Which EC50 does the source give for B50 here?
**A.** The EC50 was 9.1 ng/mL.

**Q.** For B51, which EC50 is on record?
**A.** Its EC50 is 3.29 ng/mL.
